The labels stand for the following.
B1: mouse core RAG1 (aa 384-1008), E962Q mutant (domain or fragment, UniProt P15919 384-1008, looked up)
chain: VHINKGGRPRQHLLSLTRRAQKHRLRELKIQVKEFADKEEGGDVKAVCLTLFLLALRARNEHRQADELEAIMQGRGSGLQPAVCLAIRVNTFLSCSQYHKMYRTVKAITGRQIFQPLHALRNAEKVLLPGYHPFEWQPPLKNVSSRTDVGIIDGLSGLASSVDEYPVDTIAKRFRYDSALVSALMDMEEDILEGMRSQDLDDYLNGPFTVVVKESCDGMGDVSEKHGSGPAVPEKAVRFSFTVMRITIEHGSQNVKVFEEPKPNSELCCKPLCLMLADESDHETLTAILSPLIAEREAMKSSELTLEMGGIPRTFKFIFRGTGYDEKLVREVEGLEASGSVYICTLCDTTRLEASQNLVFHSITRSHAENLQRYEVWRSNPYHESVEELRDRVKGVSAKPFIETVPSIDALHCDIGNAAEFYKIFQLEIGEVYKHPNASKEERKRWQATLDKHLRKRMNLKPIMRMNGNFARKLMTQETVDAVCELIPSEERHEALRELMDLYLKMKPVWRSSCPAKECPESLCQYSFNSQRFAELLSTKFKYRYEGKITNYFHKTLAHVPEIIERDGSIGAWASEGNQSGNKLFRRFRKMNARQSKCYEMEDVLKHHWLYTSKYLQKFMNAHNA
B2: mouse core RAG2 (aa 1-359) (domain or fragment, UniProt P21784 1-359, looked up)
chain: MSLQMVTVGHNIALIQPGFSLMNFDGQVFFFGQKGWPKRSCPTGVFHFDIKQNHLKLKPAIFSKDSCYLPPLRYPATCSYKGSIDSDKHQYIIHGGKTPNNELSDKIYIMSVACKNNKKVTFRCTEKDLVGDVPEPRYGHSIDVVYSRGKSMGVLFGGRSYMPSTQRTTEKWNSVADCLPHVFLIDFEFGCATSYILPELQDGLSFHVSIARNDTVYILGGHSLASNIRPANLYRIRVDLPLGTPAVNCTVLPGGISVSSAILTQTNNDEFVIVGGYQLENQKRMVCSLVSLGDNTIEISEMETPDWTSDIKHSKIWFGSNMGNGTIFLGIPGDNKQAMSEAFYFYTLRCSEEDLSEDQ

The series “crystal structure” deals with the molecule itself. The series can be described thus: crystal structure.
Series [1] deals with B1. Nature of the series: crystal structure.

From article PMC5987255 (Molecular cell, 2018) come the findings set out here.

In the case of B1, the binding result in “crystal structure” is on record as “binds”.

Consider B2, for which the binding result in series [1] is reported as “binds”.
